Results on two substances are retold here after patent publication US7262271.

This series has as its system Antisera against the PAS1 peptides.

On to P. gingivalis Arg-specific proteinase, for which the Arg-specific proteolytic activity entry was “Antisera against the PAS1 peptides inhibited both Arg- and Lys-specific proteolytic activity”.

For the substance P. gingivalis Lys-specific proteinase, the Lys-specific proteolytic activity entry is “Antisera against the PAS1 peptides inhibited both Arg- and Lys-specific proteolytic activity”.
